From patent US20200017566A1 (priority 2014, published 2020)
Square brackets hold non-standard residues; d marks the D form. βAla = NCCC(=O)O; Sar = CNCC(=O)O

T1: human ferroportin (Homo sapiens, UniProt Q9NP59)
T1 construct: expressed in transfected cells
T1 sequence (Q9NP59 1-571): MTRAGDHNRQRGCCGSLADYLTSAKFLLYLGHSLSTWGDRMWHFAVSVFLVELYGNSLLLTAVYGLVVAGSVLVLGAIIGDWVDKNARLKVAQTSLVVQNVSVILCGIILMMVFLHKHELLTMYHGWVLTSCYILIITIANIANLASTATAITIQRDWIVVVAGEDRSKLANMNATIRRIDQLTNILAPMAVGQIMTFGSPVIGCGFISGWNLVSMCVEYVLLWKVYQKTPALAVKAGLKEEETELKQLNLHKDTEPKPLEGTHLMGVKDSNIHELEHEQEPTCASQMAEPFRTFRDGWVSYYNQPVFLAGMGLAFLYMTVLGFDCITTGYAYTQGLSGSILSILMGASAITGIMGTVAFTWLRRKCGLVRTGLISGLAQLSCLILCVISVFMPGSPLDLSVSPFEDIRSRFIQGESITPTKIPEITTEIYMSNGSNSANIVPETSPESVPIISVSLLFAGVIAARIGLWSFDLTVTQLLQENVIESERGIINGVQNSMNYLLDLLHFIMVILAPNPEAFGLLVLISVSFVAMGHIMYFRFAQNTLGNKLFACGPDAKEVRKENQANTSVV

T2: human ferroportin (SLC40A1) fused to GFP (human, UniProt Q9NP59 1-571)
T2 sequence (looked up): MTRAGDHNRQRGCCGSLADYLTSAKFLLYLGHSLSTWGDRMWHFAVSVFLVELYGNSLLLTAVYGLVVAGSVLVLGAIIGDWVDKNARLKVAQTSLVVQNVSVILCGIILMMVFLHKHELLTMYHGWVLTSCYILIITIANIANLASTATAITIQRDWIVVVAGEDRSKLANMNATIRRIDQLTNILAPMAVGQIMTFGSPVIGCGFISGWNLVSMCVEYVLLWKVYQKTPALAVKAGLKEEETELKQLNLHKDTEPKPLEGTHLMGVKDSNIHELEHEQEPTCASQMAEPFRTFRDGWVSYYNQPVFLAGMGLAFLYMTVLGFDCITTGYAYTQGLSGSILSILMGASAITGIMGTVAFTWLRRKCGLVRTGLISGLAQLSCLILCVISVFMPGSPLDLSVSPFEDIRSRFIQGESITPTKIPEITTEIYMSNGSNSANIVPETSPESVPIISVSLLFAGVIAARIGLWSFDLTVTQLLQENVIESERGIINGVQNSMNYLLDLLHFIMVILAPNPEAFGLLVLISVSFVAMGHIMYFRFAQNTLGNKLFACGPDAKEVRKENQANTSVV


Legend:
human ferroportin = biological target: T1, human ferroportin; format: cell-based; settings: Table 3
Method: Peptide analogues were tested in vitro for induction of internalization of the human ferroportin protein. Following internalization, the […] are degraded. The assay measures a decrease in fluorescence of the receptor.
The cDNA encoding the human ferroportin (SLC40A1) was cloned from a cDNA clone from Origene (NM_014585). The DNA encoding the ferroportin was amplified by PCR using primers also encoding terminal restriction sites for subcloning, but without the termination codon. The ferroportin receptor was subcloned into a mammalian GFP expression vector containing a neomycin (G418) resistance marker in such that the reading frame of the ferroportin was fused in frame with the GFP protein. The fidelity of the DNA encoding the protein was confirmed by DNA sequencing. HEK293 cells were used for transfection of the ferroportin-GFP receptor expression plasmid. The cells were grown according to standard protocol in growth medium and transfected with the plasmids using Lipofectamine (manufacturer's protocol, Invitrogen). […] The cells were propagated and frozen in aliquots.
A retro inverse peptide is a peptide with a reversed sequence in all D amino acids. […] The EC50 of these reference compounds for ferroportin degradation was determined according to the activity assay described above.

[1] = reported by Presza et al. J Clin Invest. 2011; cited from earlier work
[2] = biological target: T2, human ferroportin (SLC40A1) fused to GFP; assay: cell-based or functional assay

Molecule | Potency EC50 [2] [µM] | also measured
DTHCPIAIF [compound 473] | – | Ferroportin internalization assay EC50 (nM) (human ferroportin): Not Active
Hy-DPhe-DIle-DCys-DIle-DPro-DPhe-DHis-DThr-DAsp-NH2 [RI-Mini Hepcidin] | – | activity in vivo [1]: highly active in vivo
H-DTHFGCIIFGPRSKGWVCK-NH2 (not fully specified (bridges); printed as Hy-DTHFGCIIFGPRSKGWVCK-NH2; cysteine pairing not given here) [CMPD No. 123] | > 10 | –
H-DTHFRCIIFGPRSKGWVCK-NH2 (not fully specified (bridges); printed as Hy-DTHFRCIIFGPRSKGWVCK-NH2; cysteine pairing not given here) [CMPD No. 125] | > 10 | –
H-DTHF[Sar]CIIFGPRSKGWVCK-NH2 (not fully specified (bridges); printed as Hy-DTHF-[Sarc]-CIIFGPRSKGWVCK-NH2; cysteine pairing not given here) [CMPD No. 127] | > 10 | –
H-DTHF[βAla]CIIFGPRSKGWVCK-NH2 (not fully specified (bridges); printed as Hy-DTHF-[β-Ala]-CIIFGPRSKGWVCK-NH2; cysteine pairing not given here) [CMPD No. 129] | > 10 | –
H-DTHFKCIIFGPRSKGWVCK-NH2 (not fully specified (bridges); printed as Hy-DTHFKCIIFGPRSKGWVCK-NH2; cysteine pairing not given here) [CMPD No. 131] | > 10 | –
DTHFPCIKFKPRSKGWVCK (not fully specified; IVA (isovaleric acid) on side chain of Lys 10; C-terminal amide) [CMPD No. 205] | > 0.3 | –
